The values below come from article PMC7102954, “A crucial RNA-binding lysine residue in the Nab3 RRM domain undergoes SET1 and SET3-responsive methylation”.

Substitutions are numbered along the chain they refer to.

Common to all, as to details: protein: recombinant; tags: N-terminal His6 (pET28a)
Data set [1] has as its target T1, Nab3 RRM K363R (Saccharomyces cerevisiae, UniProt P38996 329-419, K363R).
T1 sequence: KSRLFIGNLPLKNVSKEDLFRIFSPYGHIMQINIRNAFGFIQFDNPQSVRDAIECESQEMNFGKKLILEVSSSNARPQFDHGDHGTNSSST
Nature of the data set: pull-down (streptavidin, anti-His blot densitometry); 25 uM RNA; protein 0-60 uM; apparent Kd; 10 mM Tris-HCl pH 7.8, 50 mM NaCl, 1 mM EDTA, 5% glycerol, 2.5 mM DTT; 30 min at 15 C, then beads 2 h at 4 C; washes with 0.1% Tween-20.

Data set [2] deals with T2, Nab3 RRM (Saccharomyces cerevisiae, UniProt P38996 329-419).
T2 sequence: T1 sequence with R35K
The data set is described as above.

For data set [3], the target named is T3, Nab3 RRM S399A (Saccharomyces cerevisiae, UniProt P38996 329-419, S399A).
T3 sequence: T1 sequence with R35K, S71A
The data set is described as follows: pull-down (streptavidin, anti-His blot); 25 uM RNA; 10 mM Tris-HCl pH 7.8, 50 mM NaCl, 1 mM EDTA, 5% glycerol, 2.5 mM DTT; 30 min at 15 C, then beads 2 h at 4 C; washes with 0.1% Tween-20.

In data set [4] the target is T4, Nab3 RRM K363A (Saccharomyces cerevisiae, UniProt P38996 329-419, K363A).
T4 sequence: T1 sequence with R35A
Described as above.

B1: snR47 RNA probe (ssRNA)
RNA: UUUCUUUUUUCUUAUUCUUAUU
As to B1, the Kd is 41.9 µM in data set [1] and 13.7 µM in data set [2]. Moreover, the binding result in data set [3] and in data set [4] was “no binding” throughout.
